Results published in PMC6033619 (ACS chemical neuroscience, 2018).
*: point of attachment. Cbz = O=C(OCc1ccccc1)*; Boc = CC(C)(C)OC(=O)*

How the values were obtained:
[1] = target: T1, FGF14^V160A (aa 64-252) (human) (UniProt Q92915); test: SPR
T1 sequence: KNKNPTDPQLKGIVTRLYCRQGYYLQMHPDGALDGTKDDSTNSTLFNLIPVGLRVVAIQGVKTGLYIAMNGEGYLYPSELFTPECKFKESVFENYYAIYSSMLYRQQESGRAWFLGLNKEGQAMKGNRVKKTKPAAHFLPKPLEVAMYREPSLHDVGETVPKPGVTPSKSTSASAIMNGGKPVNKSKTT

[2] = target: T2, FGF14^WT (aa 64-252) (human) (UniProt Q92915); test: SPR
T2 sequence: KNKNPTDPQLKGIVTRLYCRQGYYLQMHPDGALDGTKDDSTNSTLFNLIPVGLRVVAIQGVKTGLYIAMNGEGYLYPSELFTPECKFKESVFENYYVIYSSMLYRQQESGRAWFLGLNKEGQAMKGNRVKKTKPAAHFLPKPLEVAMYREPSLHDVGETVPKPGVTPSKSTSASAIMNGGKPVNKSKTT

CLuc-FGF14 (human) = CLuc-FGF14 (human) (human, UniProt Q92915 1-247); test: split reporter

- Kd [1]: 182 µM
- Kd [2]: 89.6 µM
- IC50 (CLuc-FGF14 (human)): 63 µM
B1: ZL181 (Cbz-FLPK(Boc)-CONH2) (peptide)
peptide: Cbz-FLPK(Boc)-NH2
SMILES: CC(C)C[C@H](NC(=O)[C@H](Cc1ccccc1)NC(=O)OCc1ccccc1)C(=O)N1CCC[C@H]1C(=O)N[C@@H](CCCCNC(=O)OC(C)(C)C)C(N)=O
